{
  "source": "paper PMC7317449",
  "about": "“On the mechanism of calcium‐dependent activation of NADPH oxidase 5 (NOX5)” (The Febs Journal, 2019)",
  "key": {"human calmodulin": {"biological_target": "T1, human calmodulin (human, UniProt P0DP23 1-149)", "T1 construct": "calmodulin, human; gene a gift from Susan Shao, cloned in pET15b without tag; source: cloned in pET15b without tag, purified following established protocols", "test": "crystal structure; cocrystallised: 1078 µM calmodulin, 2800 µM peptide, 30 mM Tris/HCl pH 7.4, 2.5 mM CaCl2, 20 °C, sitting drop; 2.2 Å", "details": "both partners purified"}, "[1]": {"biological_target": "the molecule itself", "test": "SEC-MALS; Superdex 200 10/300 GL, 100 μL samples, 50 mM Hepes pH 7.0, 25 mM NaCl, 0.5 TCEP, 1 mL/min; monomer to dimer"}},
  "data": [
    {"binder": "Ac-DWSKVFQKVAAEKKGKVQV-NH2 (methods: peptide 673-691; The limits are told in two ways (673-691 and 674-685); Val691 is named as a contact, which fits 673-691; also called DH peptide; hNOX5 peptide; source: synthetic peptide (Chinepeptide Co, Shanghai))", "note": "[peptide 673–691 of human DH-domain (putative calmodulin-binding region of hNOX5)]", "values": [
      {"measurement": "binding result", "setting": "human calmodulin", "value": "binds"}
    ]},
    {"binder": "EF-domain of hNOX5 (residues 1–161, isoform β) (domain or fragment, human, NADPH oxidase 5 (NOX5), human, isoform β (v2), EF-domain, residues 1-161; stretch of three alanines from the Not I restriction site, added at the C terminus for cloning reasons (told in words); also called human EF-domain; hEF domain; source: E. coli BL21, purified (Strep column, TEV cleavage, Strep and Nickel columns, Superdex 75); not shown: Strep-tag, N-terminal, cleaved) MSAEEDARWLRWVTQQFKTIAGEDGEISLQEFKAALHVKESFFAERFFALFDSDRSGTITLQELQEALTLLIHGSPMDKLKFLFQVYDIDGSGSIDPDELRTVLQSCLRESAISLPDEKLDQLTLALFESADADGNGAITFEELRDELQRFPGVMENLTISAAA", "values": [
      {"measurement": "stoichiometry N", "setting": "[1]", "value": 2}
    ]}
  ]
}
